According to article PMC11862924, “Phenylpyrazoles as Inhibitors of the m6A RNA-Binding Protein YTHDF2”:

Legend:
YTHDC1 YTH domain = YTHDC1 YTH domain (UniProt Q96MU7 345-509); assay: EMSA; 20 nM RNA; FP: 20 mM HEPES/KOH pH 7.5, 50 mM NaCl, 0.005% Tween 20, 1 mM GSH (DTT), 4 C; EMSA: 20 mM HEPES pH 8.2, 50 mM NaCl, 0.05% Triton X-100, 5% glycerol, 4 C, 0.5x T
YTHDC2 YTH domain = target: T1, YTHDC2 YTH domain (UniProt Q9H6S0 1285-1424); conditions: protein: recombinant
T1 sequence: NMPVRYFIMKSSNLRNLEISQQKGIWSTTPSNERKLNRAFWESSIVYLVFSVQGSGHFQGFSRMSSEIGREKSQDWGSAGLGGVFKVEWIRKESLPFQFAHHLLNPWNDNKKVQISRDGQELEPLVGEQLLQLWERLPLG

YTHDF3 YTH domain = target: T2, YTHDF3 YTH domain (UniProt Q7Z739 391-585); conditions: protein: recombinant
T2 sequence: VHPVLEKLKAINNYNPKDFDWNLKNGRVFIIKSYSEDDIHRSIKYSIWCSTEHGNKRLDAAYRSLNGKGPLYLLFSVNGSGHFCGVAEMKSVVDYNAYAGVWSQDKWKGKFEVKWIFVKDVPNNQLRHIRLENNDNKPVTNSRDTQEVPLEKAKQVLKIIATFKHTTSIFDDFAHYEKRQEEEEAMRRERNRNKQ

YTHDF1 YTH domain = target: T3, YTHDF1 YTH domain (UniProt Q9BYJ9 375-552); conditions: protein: recombinant
T3 sequence: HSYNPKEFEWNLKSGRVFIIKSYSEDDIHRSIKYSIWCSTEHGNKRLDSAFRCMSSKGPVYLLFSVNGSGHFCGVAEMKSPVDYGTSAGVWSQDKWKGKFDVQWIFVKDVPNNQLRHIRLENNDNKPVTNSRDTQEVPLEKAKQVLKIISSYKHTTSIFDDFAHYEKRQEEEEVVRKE

YTHDF2 YTH domain = target: T4, YTHDF2 YTH domain (UniProt Q9Y5A9 383-553); conditions: protein: recombinant; tags: N-terminal His6 and GST; label: none
T4 sequence: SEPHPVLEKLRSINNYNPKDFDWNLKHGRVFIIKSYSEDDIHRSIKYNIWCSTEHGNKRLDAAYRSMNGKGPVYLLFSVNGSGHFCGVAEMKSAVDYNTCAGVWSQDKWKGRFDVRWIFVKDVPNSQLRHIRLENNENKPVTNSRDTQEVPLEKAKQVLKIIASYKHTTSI

Q: Does UUCUUCUGUGGACUGUG (ssRNA, m6A at position 12) [FAM-17mer m6A RNA probe] bind (YTHDC1 YTH domain)?
A: binds

Q: Does UUCUUCUGUGGACUGUG (ssRNA, m6A at position 12) [FAM-17mer m6A RNA probe] bind (YTHDC2 YTH domain)?
A: binds

Q: Does UUCUUCUGUGGACUGUG (ssRNA, m6A at position 12) [FAM-17mer m6A RNA probe] bind (YTHDF3 YTH domain)?
A: binds

Q: Does UUCUUCUGUGGACUGUG (ssRNA, m6A at position 12) [FAM-17mer m6A RNA probe] bind (YTHDF1 YTH domain)?
A: binds

Q: With UUCUUCUGUGGACUGUG (ssRNA, m6A at position 12) [unlabeled m6A RNA probe] as the binder, how does the IC50 (YTHDF2 YTH domain) read?
A: 115 nM
